“And” between values parts separate entries of the source, which are not always exact repeats. Equal entries are not always repeated.
Key:
FgαCC8 I613A (human) = FgαCC8 I613A (human) (UniProt P02671); experiment: ELISA; FgαCC8 WT, alanine mutants or BSA coated (1 μM/well); 5 μM GST-LigB12; anti-GST-HRP; relative binding (%) against WT
FgαCC8 H614A (human) = FgαCC8 H614A (human) (UniProt P02671); experiment: as above
FgαCC8 R608A (human) = FgαCC8 R608A (human) (UniProt P02671); experiment: as above
FgαCC8 L618A (human) = FgαCC8 L618A (human) (UniProt P02671); experiment: as above
FgαCC8 R611A (human) = FgαCC8 R611A (human) (UniProt P02671); experiment: as above
Factor XIII (FXIII) [1] = target: Factor XIII (FXIII) (UniProt P00488); experiment: ELISA; FXIII, FgαCC8 (positive control) or BSA coated; GST-LigB12 0-3 μM; anti-GST-HRP
[2] = target: His-Sumo tagged FgαCC8 (human) (UniProt P02671); experiment: ELISA; His-Sumo FgαCC8 captured by coated anti-His antibody; GST-LigB12 0-5 μM in phosphate buffer pH 6, 150 mM NaCl; anti-GST-HRP
[3] = target: His-Sumo tagged FgαCC8 (human) (UniProt P02671); experiment: ELISA; His-Sumo FgαCC8 captured by coated anti-His antibody; GST-LigB12 0-5 μM in phosphate buffer pH 7, 75 mM NaCl; anti-GST-HRP
[4] = target: His-Sumo tagged FgαCC8 (human) (UniProt P02671); experiment: ELISA; His-Sumo FgαCC8 captured by coated anti-His antibody; GST-LigB12 0-5 μM in phosphate buffer pH 6, 1200 mM NaCl; anti-GST-HRP
[5] = target: His-Sumo tagged FgαCC8 (human) (UniProt P02671); experiment: ELISA; His-Sumo FgαCC8 captured by coated anti-His antibody; GST-LigB12 0-5 μM in phosphate buffer pH 7, 1200 mM NaCl; anti-GST-HRP
[6] = target: His-Sumo tagged FgαCC8 (human) (UniProt P02671); experiment: ELISA; His-Sumo FgαCC8 captured by coated anti-His antibody; GST-LigB12 0-5 μM in phosphate buffer pH 6, 75 mM NaCl; anti-GST-HRP
[7] = target: FgαCC8 (C-terminal 23 amino acids of the fibrinogen α chain) (human) (UniProt P02671); experiment: ELISA; 1 μM FgαCC, FgαCC truncates or BSA coated on microtiter wells; GST-LigB12 0-3 μM, 1 h 37°C; anti-GST-HRP; KD = EC50 of a dose-response fit
FgαCC3 (human) = FgαCC3 (human) (UniProt P02671); experiment: as above
[8] = target: FgαCC (C-terminal region of the fibrinogen αC domain) (human) (UniProt P02671); experiment: as above
FgαCC5 (human) = FgαCC5 (human) (UniProt P02671); experiment: as above
FgαCC2 (human) = FgαCC2 (human) (UniProt P02671); experiment: as above
[9] = target: His-Sumo tagged FgαCC8 (human) (UniProt P02671); experiment: ELISA; His-Sumo FgαCC8 captured by coated anti-His antibody; GST-LigB12 0-5 μM in phosphate buffer pH 5, 150 mM NaCl; anti-GST-HRP
[10] = target: His-Sumo tagged FgαCC8 (human) (UniProt P02671); experiment: ELISA; His-Sumo FgαCC8 captured by coated anti-His antibody; GST-LigB12 0-5 μM in phosphate buffer pH 7, 150 mM NaCl; anti-GST-HRP (Fig 5A and Fig 5B)
[11] = target: GST tagged FgαCC8, P02671-2; experiment: ELISA; settings: 5 μM GST tagged FgαCC8 added to coated wells (1 μM/well); parent: est. 100; read off a plot
[12] = target: LigB12, tag free (12th Ig-like domain of Leptospira immunoglobulin-like protein B) (Leptospira interrogans serovar Pomona); experiment: SPR; Biacore 3000; tag free LigB12 amine-coupled to a CM5 chip (1000 RU); FgαCC truncates 0-3 μM in PBS, 30 μL/min, 25°C; 1:1 Langmuir model
[13] = target: LigB12 A1065K (Leptospira interrogans serovar Pomona); experiment: ELISA; LigB12 WT, mutants or BSA coated (1 μM/well); 5 μM GST-FgαCC8; anti-GST-HRP; relative binding (%) against WT
[14] = target: LigB12 F1054A (Leptospira interrogans serovar Pomona); experiment: as above
D1066A and E1088A = experiment: as above
[15] = target: LigB12 D1061N (Leptospira interrogans serovar Pomona); experiment: as above
Factor XIII (FXIII) [16] = target: Factor XIII (FXIII) (UniProt P00488); experiment: ELISA; inhibition: FXIII coated; tag free LigB12 or LigB4 0-10 μM, 1 h 37°C, unbound washed off; then 1 μM His-Sumo FgαCC, 1 h 37°C; anti-His-HRP; binding relative to wells without LigB
[17] = target: T1, GST tagged LigB12 (12th Ig-like domain of Leptospira immunoglobulin-like protein B); experiment: ELISA; settings: chain shown with the change; 5 μM GST tagged LigB12 added to coated wells (1 μM/well); parent: est. 100; read off a plot
T1 chain: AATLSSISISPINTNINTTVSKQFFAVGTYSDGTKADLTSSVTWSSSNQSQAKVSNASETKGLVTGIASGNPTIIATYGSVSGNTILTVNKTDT

Sequence of UniProt P00488 (P00488 whole entry, chain 1 of 2, the tested form may be a part): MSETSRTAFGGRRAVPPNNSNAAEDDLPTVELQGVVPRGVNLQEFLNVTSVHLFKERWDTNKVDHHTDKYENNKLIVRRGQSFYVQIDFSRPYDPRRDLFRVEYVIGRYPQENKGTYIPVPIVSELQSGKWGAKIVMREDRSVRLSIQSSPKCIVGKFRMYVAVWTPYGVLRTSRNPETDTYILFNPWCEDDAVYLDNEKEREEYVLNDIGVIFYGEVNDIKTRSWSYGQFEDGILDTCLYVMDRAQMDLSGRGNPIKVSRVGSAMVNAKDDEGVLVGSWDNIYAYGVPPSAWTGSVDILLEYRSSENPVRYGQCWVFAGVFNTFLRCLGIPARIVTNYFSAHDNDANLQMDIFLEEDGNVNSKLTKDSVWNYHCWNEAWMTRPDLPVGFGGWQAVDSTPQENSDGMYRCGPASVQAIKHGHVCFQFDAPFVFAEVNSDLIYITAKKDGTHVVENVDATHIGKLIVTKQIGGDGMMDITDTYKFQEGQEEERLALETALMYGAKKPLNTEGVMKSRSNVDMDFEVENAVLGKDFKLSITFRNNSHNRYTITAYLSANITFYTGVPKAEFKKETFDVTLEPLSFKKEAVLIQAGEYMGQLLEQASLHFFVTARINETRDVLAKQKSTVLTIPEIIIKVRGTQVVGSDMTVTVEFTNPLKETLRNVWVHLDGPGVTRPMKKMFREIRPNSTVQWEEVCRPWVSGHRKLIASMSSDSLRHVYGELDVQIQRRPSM
Sequence of UniProt P00488 (P05160 21-661, chain 2 of 2, further chain): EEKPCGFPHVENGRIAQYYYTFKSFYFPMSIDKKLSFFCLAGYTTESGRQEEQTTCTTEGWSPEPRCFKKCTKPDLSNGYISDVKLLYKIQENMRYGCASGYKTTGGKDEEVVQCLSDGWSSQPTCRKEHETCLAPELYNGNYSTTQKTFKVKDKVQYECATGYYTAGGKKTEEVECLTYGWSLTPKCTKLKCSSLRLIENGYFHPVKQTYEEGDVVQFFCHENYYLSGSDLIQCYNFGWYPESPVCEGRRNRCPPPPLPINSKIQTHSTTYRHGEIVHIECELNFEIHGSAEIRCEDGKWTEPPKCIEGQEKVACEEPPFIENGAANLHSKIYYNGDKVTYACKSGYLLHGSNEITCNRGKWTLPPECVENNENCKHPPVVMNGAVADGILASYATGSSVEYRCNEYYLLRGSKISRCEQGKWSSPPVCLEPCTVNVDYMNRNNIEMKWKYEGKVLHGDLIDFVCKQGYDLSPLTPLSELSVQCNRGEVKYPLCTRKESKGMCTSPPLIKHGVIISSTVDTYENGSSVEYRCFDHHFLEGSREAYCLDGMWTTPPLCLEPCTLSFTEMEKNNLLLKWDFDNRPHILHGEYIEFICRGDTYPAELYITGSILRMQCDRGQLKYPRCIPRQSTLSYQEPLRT

How did the percent reduction of binding relative to WT (FgαCC8 I613A (human)) turn out when “GST tagged LigB12 (12th Ig-like domain of Leptospira immunoglobulin-like protein B) (domain or fragment)” was run?
The percent reduction of binding relative to WT was 47%.

What about the percent reduction of binding relative to WT (FgαCC8 H614A (human)) of the same molecule?
The percent reduction of binding relative to WT was 50%.

What about the percent reduction of binding relative to WT (FgαCC8 R608A (human)) of the same molecule?
Its percent reduction of binding relative to WT is greater than 60%.

What about the percent reduction of binding relative to WT (FgαCC8 L618A (human)) of the same molecule?
Its percent reduction of binding relative to WT is 12%.

And the percent reduction of binding relative to WT (FgαCC8 R611A (human))?
Its percent reduction of binding relative to WT is greater than 60%.

And the Kd (Factor XIII (FXIII) [1])?
The Kd was 0.15 µM.

And the Kd [2]?
Its Kd is 0.47 µM.

What about the Kd [3] of the same molecule?
Its Kd is 0.46 µM.

And the Kd [4]?
Its Kd is 0.22 µM.

And the Kd [5]?
The Kd was 6.61 µM.

And the Kd [6]?
Its Kd is 1.29 µM.

What about the Kd [7] of the same molecule?
Its Kd is 0.76 µM.

What about the Kd (FgαCC3 (human)) of the same molecule?
Its Kd is 0.51 µM.

And the Kd [8]?
The Kd was 0.37 µM.

What about the Kd (FgαCC5 (human)) of the same molecule?
The Kd was 0.58 µM.

What about the fold over the negative control (BSA) at 3 μM LigB12 (FgαCC2 (human)) of the same molecule?
Its fold over the negative control (BSA) at 3 μM LigB12 is 2.5 fold.

And the Kd [9]?
The Kd was 1.83 µM.

And the Kd [10]?
Its Kd is 0.82 µM and 0.62 µM.

How did the percent of parent [11] turn out when “LigB12, tag free (12th Ig-like domain of Leptospira immunoglobulin-like protein B) E1088A” was run?
Its percent of parent is 90 % of WT.

Which Kd [12] does the source give for “FgαCC3 (from UniProt P02671-2 526-644) (domain or fragment)” here?
The Kd was 0.704 µM.

What about the koff [12] of the same molecule?
Its koff is 0.0339 s⁻¹.

And the kon [12]?
Its kon is 48100 M⁻¹ s⁻¹.

With “GST tagged FgαCC8 (from UniProt P02671-2 622-644) (domain or fragment)” as the molecule, how does the percent reduction of binding relative to WT [13] read?
Its percent reduction of binding relative to WT is 46%.

What about the percent reduction of binding relative to WT [14] of the same molecule?
Its percent reduction of binding relative to WT is 51%.

What about the percent reduction of binding relative to WT (D1066A and E1088A) of the same molecule?
The percent reduction of binding relative to WT was 10 to 12%.

What about the percent reduction of binding relative to WT [15] of the same molecule?
Its percent reduction of binding relative to WT is greater than 30%.

“FgαCC5 (from UniProt P02671-2 579-644) (domain or fragment)” was tested. Which Kd [12] did it give?
The Kd was 1.04 µM.

And the koff [12]?
The koff was 0.0384 s⁻¹.

What about the kon [12] of the same molecule?
Its kon is 36900 M⁻¹ s⁻¹.

For “FgαCC8 (C-terminal 23 amino acids of the fibrinogen α chain) (from UniProt P02671-2 622-644) (domain or fragment)”, which Kd [12] is on record?
Its Kd is 0.959 µM.

And the koff [12]?
Its koff is 0.0357 s⁻¹.

And the kon [12]?
The kon was 37200 M⁻¹ s⁻¹.

For “LigB12, tag free (12th Ig-like domain of Leptospira immunoglobulin-like protein B) D1066A”, which percent of parent [11] is on record?
The percent of parent was 88 % of WT.

How did the percent of parent [11] turn out when “LigB12, tag free (12th Ig-like domain of Leptospira immunoglobulin-like protein B) P1040C; F1053C” was run?
Its percent of parent is 96 % of WT.

“LigB12, tag free (12th Ig-like domain of Leptospira immunoglobulin-like protein B) (domain or fragment)” was tested. Which percent reduction of FgαCC binding to FXIII at high LigB12 concentrations (fit of the dose inhibition curve) (Factor XIII (FXIII) [16]) did it give?
The percent reduction of FgαCC binding to FXIII at high LigB12 concentrations (fit of the dose inhibition curve) was 56.7%.

MADEAGSEADHEGTHSTARGHAK [FgαCC8 (C-terminal 23 amino acids of the fibrinogen α chain), P02671-2 K620A] was tested. Which percent of parent [17] did it give?
The percent of parent was 77 % of WT.

With GHAASRPVRGIHTSPLGKPSLSP [FgαCC8 (C-terminal 23 amino acids of the fibrinogen α chain), P02671-2 K606A] as the molecule, how does the percent of parent [17] read?
The percent of parent was 78 % of WT.

For GHAKSRPARGIHTSPLGKPSLSP [FgαCC8 (C-terminal 23 amino acids of the fibrinogen α chain), P02671-2 V610A], which percent of parent [17] is on record?
The percent of parent was 99 % of WT.
